Laboratory results: patent US20180066066A1 (University of Texas, published 2018)

Key:
[1] = target: T1, human HER3 receptor on cells (human, UniProt P21860 20-1342); assay: cell-based or functional assay
[2] = target: T1, human HER3 receptor on cells; assay: cell-based or functional assay; remark: listed apart in the source
[3] = target: T2, human HER3/ErbB3 extracellular domain (human, UniProt P21860 20-643); assay: SPR, Biacore T-100; antibody captured by anti-rabbit IgG, recombinant human HER3 as analyte
T2 construct: extracellular domain; the range 1-643 of M34309 is printed only for the immunogen; also called Human HER3 ECD; recombinant human HER3
Method: All experiments were performed at 25° C. at a flow rate of 45 μl/min. To prepare a BIAcore assay, an anti-rabbit IgG antibody (50 μg/ml each in acetate buffer, pH 5.0) was immobilized onto a carboxymethyl dextran sensorchip (CM5) using amine coupling procedures as described by the manufacturer. Purified rabbit Mabs to be tested were diluted at a concentration of 5 μg/ml in 0.5% P20, HBS-EP buffer and injected on FC2 to reach 500 to 1000 RU. FC1 was used as the reference cell. Specific signals correspond to the difference of signals obtained on FC2 versus FC1. The analyte (recombinant human HER3, apparent molecular weight 97 kDa on SDS-PAGE gel) was injected during 90 sec at series of concentration dilutions (100, 50, 25, 12.5, 6.25, and 3.13, 1.56 nM) in 0.5% P20, HBS-EP buffer. These concentrations were prepared from stock solution in 0.5% P20, HBS-EP. The dissociation phase of the analyte was monitored over a 30 minute period. Running buffer was also injected under the same conditions as a double reference. After each running cycle, both flow cells were regenerated by injecting 20 to 45 μl of glycine-HCl buffer pH 1.5. Binding KD on HER3 was calculated by koff/kon kinetic rate for each HER3 monoclonal antibody (Table 2).

Her3/His10 receptor = target: T3, Her3/His10 receptor (UniProt P21860 20-643, limits assumed); assay: AlphaScreen, blocking of biotinylated NRG-1beta binding to Her3/His10 (column head prints EC50, title and text IC50)
T3 construct: extracellular domain; also called HER3 ECD tagged with 10 histidine (His); not shown: tag of 10 histidines
Method: HER3 ligand neuregulin (NRG1) can bind on HER3 extracellular domain and activates HER3 phosphorylation and down-stream signaling. Blocking ligand binding on HER3 by the selected rabbit HER3 monoclonal antibodies was determined using alpha screen format assay. NRG1 (R&D Systems) was biotinylated using a biotinylation kit (Fisher Scientific) and HER3 ECD was tagged with 10 histidine (His). Purified anti-HER3 Mabs were serially diluted two-fold into an assay buffer made from 25 mM Hepes, 100 mM NaCl, 0.5% BSA and 0.05% Tween20 in an opaque/white, half-well area plate (Costar). Rabbit IgG1 was used as a negative control. Biotinylated NRG-lbeta ligand and Her3/His₁₀ receptor were added sequentially at 10 nM concentration to the assay plate containing serially diluted antibodies. The mixture of receptor, ligand and the antibodies was incubated at room temperature with gentle shaking for 90 minutes. AlphaScreen Streptavidin Donor beads and His-Nickel Acceptor beads were added into the assay at a final concentration of 20 μg/ml each. The assay plates were covered with foil and incubated at room temperature with gentle shaking for 1 hour. The plates were read in EnVision plate reader.

[4] = target: T2, human HER3/ErbB3 extracellular domain; assay: ELISA on human HER3 ECD
Mouse HER3 ECD = target: T4, Mouse HER3 ECD (mouse, UniProt Q61526 20-641); assay: ELISA on mouse HER3 ECD
T4 construct: extracellular domain; also called mouse HER3 ECD domains

[5] = target: T1, human HER3 receptor on cells; assay: cell-based or functional assay; remark: listed apart in the source
[6] = target: T1, human HER3 receptor on cells; assay: cell-based or functional assay; remark: listed apart in the source
[7] = target: T2, human HER3/ErbB3 extracellular domain; assay: SPR, Biacore T-100, HER3 ECD

T1 sequence (P21860 20-1342): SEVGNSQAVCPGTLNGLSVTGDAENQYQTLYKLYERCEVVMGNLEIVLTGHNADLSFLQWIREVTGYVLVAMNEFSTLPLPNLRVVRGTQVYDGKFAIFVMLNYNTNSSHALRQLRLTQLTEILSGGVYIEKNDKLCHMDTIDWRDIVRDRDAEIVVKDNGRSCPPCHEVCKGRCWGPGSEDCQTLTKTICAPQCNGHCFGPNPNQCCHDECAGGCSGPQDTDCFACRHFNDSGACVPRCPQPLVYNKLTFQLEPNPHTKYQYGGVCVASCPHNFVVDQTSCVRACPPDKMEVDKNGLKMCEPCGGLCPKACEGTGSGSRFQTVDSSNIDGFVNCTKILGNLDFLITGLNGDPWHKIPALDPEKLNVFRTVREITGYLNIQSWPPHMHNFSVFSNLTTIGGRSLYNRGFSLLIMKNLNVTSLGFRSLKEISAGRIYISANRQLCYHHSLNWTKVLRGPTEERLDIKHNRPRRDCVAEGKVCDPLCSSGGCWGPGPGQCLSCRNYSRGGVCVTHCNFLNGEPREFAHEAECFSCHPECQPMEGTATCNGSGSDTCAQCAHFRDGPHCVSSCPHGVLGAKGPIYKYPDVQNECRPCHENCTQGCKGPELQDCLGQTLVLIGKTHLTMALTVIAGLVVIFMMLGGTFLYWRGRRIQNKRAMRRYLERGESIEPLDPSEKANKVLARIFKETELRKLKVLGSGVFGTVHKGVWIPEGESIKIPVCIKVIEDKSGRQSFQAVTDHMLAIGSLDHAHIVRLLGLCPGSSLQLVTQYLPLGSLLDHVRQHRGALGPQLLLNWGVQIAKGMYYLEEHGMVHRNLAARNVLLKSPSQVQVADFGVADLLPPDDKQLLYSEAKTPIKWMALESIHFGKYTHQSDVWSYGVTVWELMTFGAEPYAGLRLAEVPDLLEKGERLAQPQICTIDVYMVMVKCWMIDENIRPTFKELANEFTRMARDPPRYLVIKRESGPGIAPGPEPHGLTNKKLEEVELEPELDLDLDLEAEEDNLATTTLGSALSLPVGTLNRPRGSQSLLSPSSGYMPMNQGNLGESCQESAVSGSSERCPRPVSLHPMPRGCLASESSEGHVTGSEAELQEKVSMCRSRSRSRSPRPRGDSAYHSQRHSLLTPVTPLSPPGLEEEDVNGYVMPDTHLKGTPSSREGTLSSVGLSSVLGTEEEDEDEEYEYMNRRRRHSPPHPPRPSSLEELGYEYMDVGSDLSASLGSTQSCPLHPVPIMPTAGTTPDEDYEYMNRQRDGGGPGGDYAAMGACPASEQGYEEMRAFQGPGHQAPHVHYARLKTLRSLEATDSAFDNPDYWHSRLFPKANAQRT
T2 sequence (P21860 20-643): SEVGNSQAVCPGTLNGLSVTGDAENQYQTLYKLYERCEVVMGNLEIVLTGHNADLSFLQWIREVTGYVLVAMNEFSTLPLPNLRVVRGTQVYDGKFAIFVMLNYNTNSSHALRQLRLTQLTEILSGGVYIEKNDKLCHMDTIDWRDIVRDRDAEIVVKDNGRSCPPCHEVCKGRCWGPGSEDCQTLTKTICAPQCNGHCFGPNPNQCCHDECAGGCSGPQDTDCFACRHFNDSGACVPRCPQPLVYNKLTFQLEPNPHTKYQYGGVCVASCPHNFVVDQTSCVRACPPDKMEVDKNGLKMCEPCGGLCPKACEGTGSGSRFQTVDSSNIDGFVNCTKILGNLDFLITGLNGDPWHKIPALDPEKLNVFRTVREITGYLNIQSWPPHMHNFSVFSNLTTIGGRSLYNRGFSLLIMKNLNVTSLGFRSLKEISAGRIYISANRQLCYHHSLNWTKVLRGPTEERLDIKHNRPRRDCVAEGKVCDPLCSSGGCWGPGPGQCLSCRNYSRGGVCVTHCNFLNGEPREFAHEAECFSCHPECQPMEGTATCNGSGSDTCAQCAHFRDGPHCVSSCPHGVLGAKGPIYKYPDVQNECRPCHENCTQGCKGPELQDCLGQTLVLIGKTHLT
T3 sequence (P21860 20-643 limits assumed): as the sequence (P21860 20-643) above
T4 sequence (Q61526 20-641): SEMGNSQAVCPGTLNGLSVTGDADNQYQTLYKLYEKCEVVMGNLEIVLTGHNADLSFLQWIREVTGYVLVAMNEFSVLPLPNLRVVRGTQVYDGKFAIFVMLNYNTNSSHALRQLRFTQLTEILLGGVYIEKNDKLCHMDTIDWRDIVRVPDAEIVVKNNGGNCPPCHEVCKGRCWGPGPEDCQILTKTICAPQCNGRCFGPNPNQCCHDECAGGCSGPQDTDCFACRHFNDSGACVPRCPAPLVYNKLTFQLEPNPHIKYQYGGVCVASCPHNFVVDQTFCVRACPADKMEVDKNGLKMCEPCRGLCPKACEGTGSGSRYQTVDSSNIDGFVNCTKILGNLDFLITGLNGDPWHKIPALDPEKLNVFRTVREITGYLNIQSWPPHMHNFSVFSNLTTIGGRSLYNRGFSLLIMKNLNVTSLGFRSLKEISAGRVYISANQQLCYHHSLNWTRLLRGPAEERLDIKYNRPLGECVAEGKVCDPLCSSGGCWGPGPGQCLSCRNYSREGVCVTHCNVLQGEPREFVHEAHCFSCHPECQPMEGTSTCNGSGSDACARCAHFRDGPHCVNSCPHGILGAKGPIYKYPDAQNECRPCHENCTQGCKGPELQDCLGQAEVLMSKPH

| Binder | % Receptor Internalization [1] | pAKT inhibition, EC50 (nM) [2] | pERK ½ inhibition, EC50 (nM) [2] | pHER3 inhibition, EC50 (nM) [2] | Kd [3] | IC50 (Her3/His10 receptor) | EC50 [4] | EC50 (Mouse HER3 ECD) | also measured |
| --- | --- | --- | --- | --- | --- | --- | --- | --- | --- |
| HER3-hMab-A9 (antibody, V domains shown) VH: QVQLVESGGGLVQPGGSLRLSCSASGFSFSASYYIYWVRQAPGKGLEYIAYITGDDDKRTYYANWAKGRFTISRDNSKNTVYLQMNSLRAEDTAVYYCTRNLPDELWGPGTLVTVSS VL: DIQMTQTPSTLSASVGDRVTITCQSSESVYSYKNLAWYQQKPGKPPKLLIWQASRLSSGVPSRFSGSGSGTEFTLTISSLQPDDFATYYCQGTYYSSAWDFVFGGGTKVEIK | – | – | – | – | – | – | 3.1 ng/mL | 4.3 ng/mL | – |
| HER3-hMab-A12 (antibody, V domains shown) VH: QVQLVESGGGLVQPGGSLRLSCSASGFSFSASYYIYWVRQAPGKGLEYIAYITGDDDKRTYYANWAKGRFTISRDTSKNTVYLQMNSLRAEDTAVYYCTRNLPDELWGPGTLVTVSS VL: QAQMTQTPSTLSASVGDRVTITCQSSESVYSYKNLAWYQQKPGKPPKLLIWQASRLSSGVPSRFSGSGSGTEFTLTISSLQPDDFATYYCQGTYYSSAWDFVFGGGTKVEIK | – | – | – | – | – | – | 2.4 ng/mL | 6.7 ng/mL | – |
| HER3-hMab-A10 (antibody, V domains shown) VH: QVQLVESGGGLVQPGGSLRLSCSASGFSFSASYYIYWVRQAPGKGLEYIAYITGDDDKRTYYANWAKGRFTISRDTSKNTVYLQMNSLRAEDTAVYYCTRNLPDELWGPGTLVTVSS VL: DIQMTQTPSTLSASVGDRVTITCQSSESVYSYKNLAWYQQKPGKPPKLLIWQASRLSSGVPSRFSGSGSGTEFTLTISSLQPDDFATYYCQGTYYSSAWDFVFGGGTKVEIK | – | – | – | – | – | – | 2.6 ng/mL | 5.4 ng/mL | pHER3 inhibition (IC50, µg/ml) [5]: 0.0173 µg/ml; Inhibition of MCF-7 cancer cell proliferation (IC50, µg/ml) [6]: 0.181 µg/mL; Kd [7]: 1.2 nM; koff [7]: 0.000169 s⁻¹; kon [7]: 141000 M⁻¹ s⁻¹ |
| HER3-hMab-A11 (antibody, V domains shown) VH: QVQLVESGGGLVQPGGSLRLSCSASGFSFSASYYIYWVRQAPGKGLEYIAYITGDDDKRTYYANWAKGRFTISRDNSKNTVYLQMNSLRAEDTAVYYCTRNLPDELWGPGTLVTVSS VL: QAQMTQTPSTLSASVGDRVTITCQSSESVYSYKNLAWYQQKPGKPPKLLIWQASRLSSGVPSRFSGSGSGTEFTLTISSLQPDDFATYYCQGTYYSSAWDFVFGGGTKVEIK | – | – | – | – | – | – | 2.6 ng/mL | 7.9 ng/mL | – |
| Chi1210 (antibody, V domains shown, also called parental rabbit/human Fc chimera of Rab1210) VH: QEQLEESGGGLVQPEGSLTLTCTASGFSFSSSYWICWVRQAPGKGLELIGYIWSGNGATYYASWAKGRFTISKTSSTTVTLQMTSVTATDTATYFCARNYDASGYGIFHLWGPGTLVTVSS VL: AVVMTQTPASVSAAVGGTVTINCQASQSIVSSYLSWYQQKTGQPPKLLIYSASKLASGVPPRFSGSGSGTQFTLTISGVQCDDAATYYCLYGVDSSNIDNAFGGGTEVVVK | – | – | – | – | – | – | 2.6 ng/mL | – | pHER3 inhibition (IC50, µg/ml) [5]: 0.0035 µg/ml; Inhibition of MCF-7 cancer cell proliferation (IC50, µg/ml) [6]: 0.084 µg/mL; Kd [7]: 1.2 nM; koff [7]: 0.000644 s⁻¹; kon [7]: 538000 M⁻¹ s⁻¹ |
| HER3-hMab-A13 (antibody, V domains shown) VH: QVQLVESGGGLVQPGGSLRLSCSASGFSFSSSYWICWVRQAPGKGLEYIGYIWSGNGATYYASWAKGRFTISRDNSKNTVYLQMNSLRAEDTAVYFCARNYDASGYGIFHLWGPGTLVTVSS VL: DIQMTQTPSSLSASVGDRVTINCQASQSIVSSYLSWYQQKPGKPPKLLIYSASKLASGVPSRFSGSGSGTDFTLTISSLQPEDFATYYCLYGVDSSNIDNAFGGGTKVEIK | – | – | – | – | – | – | 2.5 ng/mL | – | – |
| HER3-hMab-A14 (antibody, V domains shown) VH: QVQLVESGGGLVQPGGSLRLSCSASGFSFSSSYWICWVRQAPGKGLELIGYIWSGNGATYYASWAKGRFTISRDTSKNTVYLQMNSLRAEDTAVYFCARNYDASGYGIFHLWGPGTLVTVSS VL: DIQMTQTPSSLSASVGDRVTINCQASQSIVSSYLSWYQQKPGKPPKLLIYSASKLASGVPSRFSGSGSGTDFTLTISSLQPEDFATYYCLYGVDSSNIDNAFGGGTKVEIK | – | – | – | – | – | – | 1.9 ng/mL | – | pHER3 inhibition (IC50, µg/ml) [5]: 0.0017 µg/ml; Inhibition of MCF-7 cancer cell proliferation (IC50, µg/ml) [6]: 0.232 µg/mL; Kd [7]: 0.862 nM; koff [7]: 0.000174 s⁻¹; kon [7]: 201000 M⁻¹ s⁻¹ |

Now from value to binder, other results behind:

| % Receptor Internalization [1] | pAKT inhibition, EC50 (nM) [2] | pERK ½ inhibition, EC50 (nM) [2] | pHER3 inhibition, EC50 (nM) [2] | Kd [3] | IC50 (Her3/His10 receptor) | EC50 [4] | EC50 (Mouse HER3 ECD) | Binder | also measured |
| --- | --- | --- | --- | --- | --- | --- | --- | --- | --- |
| 60% | 2.3 nM | 3.8 nM | 1.8 nM | 0.16 nM | 0.52 nM | – | – | Rab774 (antibody, V domains shown, also called Rab774 monoclonal antibody) VH: QSVEESGGRLVTPGTPLTLTCTVSGIDLSTYAMTWVRRAPGKGLEWLGIINRSSKTYLTDWARGRFTISKTSTTVDLKISSPTTEDTATYFCGRVMSPYSVAGGDLWGPGTLVTVSS VL: QPVLTQSPSASAALGASAKLTCILSSDLSDYTIDWYKHQQGEAPRYLMQLRSDGSYTKGTGVPDRFSGSSSGADRYLVISSVQADDEADYYCGLPYSVEYVFGGGTQLTVT | – |
| 39% | 3.8 nM | 6.2 nM | 3.5 nM | 7.3 nM | 0.51 nM | – | – | Rab46 (antibody, V domains shown, also called Rab46 monoclonal antibody) VH: EEQLVESGGGLVQPEGSLTLTCTASGFSFSASYYIYWVRQAPGKGLEGIAYITGDDDKRTYYANWAKGRFTISKTSTTVTLQMTSLTAADTATYFCTRNLPDELWGPGTLVTVSS VL: QAVVTQTPSSVSAAVGGTVTISCQSSESVYSYKNLAWYQQKPGQPPRLLIWQASRLSSGVSSRFSGSGSGTQFTLTISGVQCDDAATYYCQGTYYSSAWDFVFGGGTEVMVE | – |
| 62% | 0.4 nM | 1.3 nM | 0.7 nM | 1 nM | 0.1 nM | – | – | Rab1210 (antibody, V domains shown, also called Rab1210 monoclonal antibody) VH: QEQLEESGGGLVQPEGSLTLTCTASGFSFSSSYWICWVRQAPGKGLELIGYIWSGNGATYYASWAKGRFTISKTSSTTVTLQMTSVTATDTATYFCARNYDASGYGIFHLWGPGTLVTVSS VL: AVVMTQTPASVSAAVGGTVTINCQASQSIVSSYLSWYQQKTGQPPKLLIYSASKLASGVPPRFSGSGSGTQFTLTISGVQCDDAATYYCLYGVDSSNIDNAFGGGTEVVVK | – |
| – | – | – | – | – | – | 2.3 ng/mL | – | HER3-hMab-A16 (antibody, V domains shown) VH: QVQLVESGGGLVQPGGSLRLSCSASGFSFSSSYWICWVRQAPGKGLELIGYIWSGNGATYYASWAKGRFTISRDTSKNTVYLQMNSLRAEDTAVYFCARNYDASGYGIFHLWGPGTLVTVSS VL: AVQMTQTPSSLSASVGDRVTINCQASQSIVSSYLSWYQQKPGKPPKLLIYSASKLASGVPSRFSGSGSGTDFTLTISSLQPEDFATYYCLYGVDSSNIDNAFGGGTKVEIK | – |
| – | – | – | – | – | – | 2.4 ng/mL | – | HER3-hMab-A15 (antibody, V domains shown) VH: QVQLVESGGGLVQPGGSLRLSCSASGFSFSSSYWICWVRQAPGKGLEYIGYIWSGNGATYYASWAKGRFTISRDNSKNTVYLQMNSLRAEDTAVYFCARNYDASGYGIFHLWGPGTLVTVSS VL: AVQMTQTPSSLSASVGDRVTINCQASQSIVSSYLSWYQQKPGKPPKLLIYSASKLASGVPSRFSGSGSGTDFTLTISSLQPEDFATYYCLYGVDSSNIDNAFGGGTKVEIK | – |
| 55% | 3.6 nM | 5.5 nM | 1.7 nM | 3.6 nM | 0.07 nM | – | – | Rab189 (antibody, V domains shown, also called Rab189 monoclonal antibody) VH: QESLEESGGDLVKPEGTLTLTCKASGIGFGYYYYICWVRQAPGKGLEWIACIYTGISDSTYYATWAKGRFAISKTSSTTVTLQMTSLTAADTATYFCARSDPYYTTTYTNTYPTYWNLWGPGTLVTVSS VL: CAFELTQTPSSVEAAVGGTVTIKCQASQSINNYLAWYQQKTGQPPKLLIYRASTLESGVPSRFKGSGSGTQFTLTISDLECADAATYYCQSYYYSSSNNYYNAFGGGTEVVVK | – |
